The target of data set [1] is T1, MBP-BFP-TLS-GFP-6xHis (TLS/FUS) (UniProt P35637 1-526). Briefly: FRET; Anisotropy: 5 mM Tris-HCl pH 7.6, 25 mM NaCl, 0.1% CHAPS, 2.5 mM glucose, 0.5 mM DTT, 25 C, 100 nM TAMRA-RNA; FRET buffer not in material. The note with it: protein: recombinant; tags: N-term MBP, TagBFP; C-term TagGFP2, 6xHis.
The target of data set [2] is T1, MBP-BFP-TLS-GFP-6xHis (TLS/FUS). Described as above. The note with it: protein: recombinant, tags: N-term MBP, TagBFP, C-term TagGFP2, 6xHis.
The target is the same in data set [3]. As to the kind of experiment: fluorescence anisotropy; 100 nM RNA; Anisotropy: 5 mM Tris-HCl pH 7.6, 25 mM NaCl, 0.1% CHAPS, 2.5 mM glucose, 0.5 mM DTT, 25 C, 100 nM TAMRA-RNA; FRET buffer not in material. The following applies: protein: recombinant; tags: N-term MBP, TagBFP; C-term TagGFP2, 6xHis; label: TAMRA. On the technique in general: Fluorescence polarisation rises when a labelled molecule tumbles more slowly, as on binding a larger partner.

Data set [4] has the same target. As to the kind of experiment: FRET; Anisotropy: 5 mM Tris-HCl pH 7.6, 25 mM NaCl, 0.1% CHAPS, 2.5 mM glucose, 0.5 mM DTT, 25 C, 100 nM TAMRA-RNA; FRET buffer not in material. The note with it: protein: recombinant; tags: N-term MBP, TagBFP; C-term TagGFP2, 6xHis. This is another data set of the same source.

T1 sequence (P35637 whole entry): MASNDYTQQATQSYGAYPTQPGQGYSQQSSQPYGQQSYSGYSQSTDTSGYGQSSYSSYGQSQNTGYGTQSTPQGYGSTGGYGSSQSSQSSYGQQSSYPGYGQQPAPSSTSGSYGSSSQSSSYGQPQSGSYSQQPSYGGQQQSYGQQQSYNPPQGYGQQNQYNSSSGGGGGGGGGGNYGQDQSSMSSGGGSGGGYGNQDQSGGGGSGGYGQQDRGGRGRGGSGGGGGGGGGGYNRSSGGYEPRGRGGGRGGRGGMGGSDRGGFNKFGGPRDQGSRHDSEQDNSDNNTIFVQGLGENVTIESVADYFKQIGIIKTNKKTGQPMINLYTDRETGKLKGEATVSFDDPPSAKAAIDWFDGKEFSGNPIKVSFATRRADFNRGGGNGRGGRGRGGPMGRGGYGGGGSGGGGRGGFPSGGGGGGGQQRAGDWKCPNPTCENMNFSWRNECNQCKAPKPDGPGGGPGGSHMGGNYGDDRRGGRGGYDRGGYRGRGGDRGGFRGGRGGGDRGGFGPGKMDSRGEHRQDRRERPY

On to GTTAAGAGGGTACGGTGGTTTGATGACACTG (ssDNA) [D31], for which the binding signal in data set [1] was 0.0594 ± 0.0039 |dE| FRET. As for GUUAAGAGGGUAC (ssRNA) [R13 (5'-pncRNA)], the binding signal in data set [2] is 0.0663 ± 0.0091 |dE| FRET. As to UUUUUUUUUUUUUUUUUUUUUUUUUUUUUUU (ssRNA) [TAMRA-U31], the binding result in data set [3] is recorded as “binds”. Consider GTTAAGAGGGTAC (ssDNA) [D13], for which, in data set [1], the binding signal is 0.0175 ± 0.0018 |dE| FRET.

GUUAAGAGGGUA (ssRNA) [R12]: the binding result in data set [4] is listed as “binds”. Take CGGTGGTTTGATGACACTG (ssDNA) [D19]: the binding signal in data set [1] is 0.0309 ± 0.0025 |dE| FRET.

Take GAGGGU (ssRNA) [R6]: in data set [4], the binding result is on record as “binds”. As for CGGUGGUUUGAUGACACUG (structured_RNA) [R19 (3'-pncRNA)], the binding signal in data set [2] (stem-loop) was 0.055 ± 0.0099 |dE| FRET.

Values taken from publication PMC7021683, “RNA sequence and length contribute to RNA-induced conformational change of TLS/FUS”.
